Test results from patent publication US20050084491A1 (Janssen / Centocor, published 2005).

Assays:
[1] = biological target: CNTO95; assay: flow cytometry: CNTO95 (10 ug/ml) staining of A375.S2 cells after preincubation with peptide at 100 ug/ml
[2] = biological target: CNTO95; assay: isothermal titration calorimetry, peptide titrated into 3 µM CNTO95, 25° C. (commented: No binding)
[3] = biological target: CNTO95; assay: flow cytometry: CNTO95 (10 ug/ml) staining of A375.S2 cells after preincubation with peptide at 200 ug/ml
[4] = biological target: CNTO95; assay: isothermal titration calorimetry, peptide titrated into 3 µM CNTO95, 25° C.
[5] = biological target: CNTO95; assay: competitive ELISA: peptide preincubated with CNTO95, CNTO95 binding to αVβ3-coated plate detected

Binder | Mean Channel Fluorescence [1] | ΔH [2] [kcal/mol] | Mean Channel Fluorescence [3] | Kd [4] [µM] | Molar ratio (Peptide/CNTO95) [4] | ΔH [4] [kcal/mol] | EC50 [5] [µM]
DYRTAADTTGLQ (synthetic peptide with the D564-Q575 segment of the mature alphaV chain; also called alphaV segment; native peptide) [CEN2322] | 90.5 | -0.325 | 92.4 |  |  |  | 
DFRSWWDLEE (synthetic peptide made from the consensus formula; C-terminal glutamates added for solubility) [CEN2553] | 12.9 |  | 9.41 |  |  |  | 
DFRSWWDLSGYR (synthetic linear peptide, phage-display consensus (mimotope); also called 12p1; 12pG1) [CEN2319] | 12.3 |  | 11.6 | 4.2 | 2.2 | -12 | 5.8
